# Experimental data as given in US20200179316A1.
# Molecular target: Sec23a/Sec24d (full-length, wild type) (H. sapiens) (UniProt Q15436)
# Test: cell-based or functional assay
# Details: scale: % of protein present in starting permeabilized cells
# Sec23a/Sec24d (full-length, wild type) (H. sapiens), sequence (Q15436 whole entry, chain 1 of 2): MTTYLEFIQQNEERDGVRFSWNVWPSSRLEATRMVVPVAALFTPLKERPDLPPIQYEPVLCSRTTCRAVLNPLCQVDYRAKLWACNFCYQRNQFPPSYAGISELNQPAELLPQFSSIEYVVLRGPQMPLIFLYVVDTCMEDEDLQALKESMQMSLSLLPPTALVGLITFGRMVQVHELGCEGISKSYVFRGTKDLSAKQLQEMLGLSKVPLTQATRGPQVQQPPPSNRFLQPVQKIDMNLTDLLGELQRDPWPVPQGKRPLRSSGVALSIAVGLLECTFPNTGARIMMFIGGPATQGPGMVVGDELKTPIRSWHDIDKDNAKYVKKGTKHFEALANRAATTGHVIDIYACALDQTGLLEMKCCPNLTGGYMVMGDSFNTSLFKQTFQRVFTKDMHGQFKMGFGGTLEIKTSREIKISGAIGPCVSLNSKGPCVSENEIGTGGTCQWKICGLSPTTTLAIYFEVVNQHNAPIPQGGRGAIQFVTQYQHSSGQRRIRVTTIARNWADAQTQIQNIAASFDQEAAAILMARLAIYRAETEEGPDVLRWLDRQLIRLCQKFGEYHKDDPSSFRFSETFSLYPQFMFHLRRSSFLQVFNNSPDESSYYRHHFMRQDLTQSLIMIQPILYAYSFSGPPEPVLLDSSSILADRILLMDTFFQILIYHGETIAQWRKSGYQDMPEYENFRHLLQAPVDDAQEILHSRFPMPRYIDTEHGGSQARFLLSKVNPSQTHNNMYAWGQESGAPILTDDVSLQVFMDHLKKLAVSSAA
# Sec23a/Sec24d (full-length, wild type) (H. sapiens), sequence (O94855 other isoform, or with tags, fused parts or gaps, chain 2 of 2, further chain): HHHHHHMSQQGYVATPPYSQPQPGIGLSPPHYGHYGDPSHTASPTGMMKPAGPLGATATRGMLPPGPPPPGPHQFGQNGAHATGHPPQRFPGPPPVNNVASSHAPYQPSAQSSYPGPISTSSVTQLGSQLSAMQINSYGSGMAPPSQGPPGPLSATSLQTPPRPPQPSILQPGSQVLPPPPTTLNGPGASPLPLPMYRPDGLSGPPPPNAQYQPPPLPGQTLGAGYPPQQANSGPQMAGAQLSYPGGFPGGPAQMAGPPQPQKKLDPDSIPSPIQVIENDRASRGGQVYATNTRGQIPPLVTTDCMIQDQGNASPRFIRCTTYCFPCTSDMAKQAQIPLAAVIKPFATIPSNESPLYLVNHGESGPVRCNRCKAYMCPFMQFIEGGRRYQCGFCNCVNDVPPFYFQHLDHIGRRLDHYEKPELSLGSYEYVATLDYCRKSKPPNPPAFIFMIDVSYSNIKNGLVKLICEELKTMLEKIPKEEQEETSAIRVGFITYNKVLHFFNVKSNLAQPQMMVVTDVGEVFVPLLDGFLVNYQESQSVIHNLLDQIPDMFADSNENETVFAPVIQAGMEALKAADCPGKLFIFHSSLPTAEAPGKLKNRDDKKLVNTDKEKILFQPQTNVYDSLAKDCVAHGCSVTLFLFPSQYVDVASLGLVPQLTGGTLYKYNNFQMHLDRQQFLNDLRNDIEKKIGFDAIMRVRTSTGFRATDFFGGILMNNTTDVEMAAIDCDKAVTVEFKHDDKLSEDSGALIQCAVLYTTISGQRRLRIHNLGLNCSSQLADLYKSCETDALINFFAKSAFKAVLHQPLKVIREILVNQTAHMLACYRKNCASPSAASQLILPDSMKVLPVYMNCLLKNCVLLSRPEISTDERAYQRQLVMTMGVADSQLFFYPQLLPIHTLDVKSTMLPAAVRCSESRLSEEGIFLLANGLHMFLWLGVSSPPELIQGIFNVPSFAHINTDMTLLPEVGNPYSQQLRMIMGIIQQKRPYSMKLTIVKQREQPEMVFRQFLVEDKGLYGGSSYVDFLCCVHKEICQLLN
Substance,"packaging efficiency with wild-type COPII, CHO-LDLRG544V cells","packaging efficiency with wild-type COPII, wild-type CHO cells"
ERGIC-53,4.5,
p24α2,8.7,10.9
p24δ1,7.7,4.6

# Results, then the substance that gave them:
"packaging efficiency with wild-type COPII, CHO-LDLRG544V cells","packaging efficiency with wild-type COPII, wild-type CHO cells",Substance
6.4,6.4,p24α3
10.6,,p24β1
